IC50 data for one substance are collected here from paper PMC8084299, “Peculiarities of the Presentation of the Encephalitogenic MBP Peptide by HLA-DR Complexes Providing Protection and Predisposition to Multiple Sclerosis” (Acta Naturae, 2021).

This test deals with HLA-DR15 (HLA-DRB1*1501) (Homo sapiens, UniProt P01903+P01911). The test is described as follows: Competitive ELISA against biotinylated pp65 (pp65bio) for binding to HLA-DR. Particulars: pp65bio 150 nM, HLA-DR15 150 nM, non-biotinylated competitor 7.8 nM - 1 μM, HLA-DM 150 nM, PBS, 37°C, 18 h, triplicate, ± SD, read-out: IC50 in competition with pp65bio for HLA-DR15.

Turning to “MBP85-97: myelin basic protein peptide 85-97 fused to C-terminus of bacterial thioredoxin through (SGGGG)3S linker with His-tags (PVVHFFKNIVTPR; not fully specified; C-terminal fusion to thioredoxin via (SGGGG)3S linker (left out))”, the IC50 came to 120 ± 20 nM.

Usually IC50 stands for the concentration at which inhibition is half-maximal.
